Measured values: US20220031857A1

Experiments:
[1] = target: recombinant mouse TfR1 (transferrin receptor 1) (mouse) (UniProt Q62351); experiment: Octet, mouse TfR1 on anti-His biosensors, analyte 10 nM, PBS pH 7.2
[2] = target: recombinant mouse TfR1 (transferrin receptor 1) (mouse) (UniProt Q62351); experiment: Octet, mouse TfR1 immobilised on biosensors; row buffer (no first antibody), column 8D3
[3] = target: recombinant mouse TfR1 (transferrin receptor 1) (mouse) (UniProt Q62351); experiment: Octet, mouse TfR1 on anti-His biosensors, analyte 10 nM, PBS pH 6.0

Sequence of recombinant mouse TfR1 (transferrin receptor 1) (mouse) (Q62351 89-763 limits assumed): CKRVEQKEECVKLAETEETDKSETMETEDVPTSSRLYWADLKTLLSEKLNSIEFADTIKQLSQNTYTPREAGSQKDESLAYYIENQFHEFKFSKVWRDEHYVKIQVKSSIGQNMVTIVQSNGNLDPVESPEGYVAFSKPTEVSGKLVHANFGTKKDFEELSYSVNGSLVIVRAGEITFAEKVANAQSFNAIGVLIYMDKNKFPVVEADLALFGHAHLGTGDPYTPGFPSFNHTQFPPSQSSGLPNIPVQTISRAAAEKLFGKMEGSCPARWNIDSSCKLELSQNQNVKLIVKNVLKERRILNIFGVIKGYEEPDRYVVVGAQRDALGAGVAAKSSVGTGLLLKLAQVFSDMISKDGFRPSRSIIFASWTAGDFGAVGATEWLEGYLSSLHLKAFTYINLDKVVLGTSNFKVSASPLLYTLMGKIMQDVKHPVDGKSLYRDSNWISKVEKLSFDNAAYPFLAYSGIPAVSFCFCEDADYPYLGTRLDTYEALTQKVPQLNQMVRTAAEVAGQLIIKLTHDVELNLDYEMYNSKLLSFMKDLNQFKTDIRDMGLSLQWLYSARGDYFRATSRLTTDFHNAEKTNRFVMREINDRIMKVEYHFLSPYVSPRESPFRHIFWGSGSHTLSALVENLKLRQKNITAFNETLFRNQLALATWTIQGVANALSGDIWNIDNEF

Kd [1]: 0.221 nM | koff [1]: 0.000131 s⁻¹ | kon [1]: 591000 M⁻¹ s⁻¹ | Octet signal as second antibody after buffer [2]: 0.33 | Kd [3]: 0.247 nM | koff [3]: 0.000126 s⁻¹ | kon [3]: 511000 M⁻¹ s⁻¹
B1: 8D3 monoclonal antibody to mouse TfR (antibody, from another filing, V domains shown)
VH: EVQLVESGGGLVQPGNSLTLSCVASGFTFSNYGMHWIRQAPKKGLEWIAMIYYDSSKMNYADTVKGRFTISRDNSKNTLYLEMNSLRSEDTAMYYCAVPTSHYVVDVWGQGVSVTVSS
VL: DIQMTQSPASLSASLEEIVTITCQASQDIGNWLAWYQQKPGKSPQLLIYGATSLADGVPSRFSGSRSGTQFSLKISRVQVEDIGIYYCLQAYNTPWTFGGGTKLELK
